Laboratory results: US20080015165A1, “NOVEL POLYPEPTIDE” (KYOWA HAKKO KOGYO CO., LTD., priority 1998, published 2008)

Tests used:
[1] = Enzyme activity for monofucosylpoly-N-acetyllactosamine sugar chain P2, Namalwa cell extract, HPLC; assay type: biochemical; settings: relative activity with the activity for P2 assumed to be 1
Method: (§1) Samples were allowed to react in 20 μl of an assay solution [50 mM cacodylate (pH 6.8), 5 mM ATP, 10 mM L-fucose, 75 μM […] (manufactured by SIGMA), 25 mM MnCl2, 15 μM fluorescently labeled sugar chain substrate, 6 μl of the cell lysate above] at 37° C. for 2 hours, followed by treatment at 100° C. for 3 minutes to stop the reaction. Next 200 μl of water was added to the samples, and the supernatant was obtained by centrifugation at 10,000×g for 5 minutes. Using an aliquot of the supernatant (10 μl), products were analyzed by HPLC under the following conditions.
(§2) HPLC: • Column—TSK-gel ODS-80TsQA column (4.6×250 mm; TOSOH CORPORATION) • Eluate—0.02 M ammonium acetate (pH 4.0) containing 7% methanol • Elution temperature—50° C. • Flow rate—1.0 ml/min. • Detection—Fluorescence spectrum photometer FB-920 (manufactured by JASCO Corporation) (excitation wavelength: 330 nm, radiation wavelength: 420 nm)

[2] = Enzyme activity for a poly-N-acetyllactosamine sugar chain, Namalwa cell extract, HPLC; assay type: biochemical
From the text: Using a poly-N-acetyllactosamine sugar chain, it was examined that to which GlcNAc in the sugar chains, human Fuc-TIX and 5 types of human α1,3-fucosyltransferase (Fuc-TIII, Fuc-TIV, Fuc-TV, Fuc-TVI, and Fuc-TVII) that had been cloned so far transferred fucose.
Control plasmid (pAMo) and the human Fuc-TIX expression plasmid pAMo-FT9 were introduced into Namalwa cells according to the method shown in Example 1 (3), thereby obtaining stable transformants.
Namalwa cells expressing each of the other 5 types of human α1,3-fucosyltransferases (Fuc-TIII, Fuc-TIV, Fuc-TV, Fuc-TVI, and Fuc-TVII) were obtained according to the previous report (Glycoconjugate J., 13, 802-812, Biochem. Biophys. Res. Commun., 237, 131-137, 1997).
The resultant transformants (about 1×10^7) were collected in microtubes (1.5 ml, manufactured by Eppendolf), followed by centrifugation at 550×g for 7 minutes to collect the cells.
The collected cells were washed with 0.9 ml of PBS. The washed cells were suspended in 100 μl of a solution which consisted of 20 mM HEPES (pH 7.2) and 1% TrironX-100, then allowed to stand at 4° C. for 10 minutes. Subsequently the cells were disrupted using a ultrasonicator (Bioruptor; manufactured by COSMO BIO CO., LTD.)
After disruption of the cells, each supernatant was obtained by centrifugation at 550×g for 7 minutes and used as an enzyme sample. A poly-N-acetyllactosamine sugar chain (Galβ1-4GlcNAcβ1-3Galβ1-4GlcNAcβ1-3Galβ1-4GlcNAc) consisting of 6 sugars was fluorescently labeled with 2-aminobenzamide to make a sugar chain (Galβ1-4GlcNAcβ1-3Galβ1-4GlcNAcβ1-3Galβ1-4GlcNAc-2AB: abbreviated as S in FIGS. 13 and 15, and table 3), which was used as a substrate
Florescent labeling was performed using a Signal™ 2-AB glycan labeling kit (manufactured by Oxford GlycoScience). A poly-N-acetyllactosamine sugar chain (Galβ1-4GlcNAcβ1-3Galβ1-4GlcNAcβ1-3Galβ1-4GlcNAc) was prepared according to WO98/03524.
as §1, §2

Namalwa cells = test: Indirect fluorescent antibody staining of Namalwa cells expressing human Fuc-TIV or Fuc-TIX (VIM-2 and Le^x sugar chains); assay type: cell-based; settings: compared to Namalwa cells transfected with pAMo
Method: Using an anti-VIM-2 sugar chain antibody (anti-CDw65 antibody, manufactured by Serotec) and anti-Le^x sugar chain antibodies [73-30 (manufactured by […] CORPORATION) and anti-CD15 antibody (C3D-1, manufactured by Dako)], indirect fluorescent antibody staining was performed for Namalwa cells expressing human Fuc-TIV or human Fuc-TIX, and for Namalwa cells transfected with the control vector pAMo, which were constructed in Example 9. The VIM-2 sugar chain is a sugar chain having the structure consisting of Galβ1-4GlcNAcβ1-3Galβ1-4(Fucα1-3)GlcNAc on non-reduced terminal of a sugar chain.
Indirect fluorescent antibody staining was performed according to the method described in Example 1 (3). Anti-VIM-2 sugar chain antibodies, 73-30 and C3D-1 were used after dilution at 1:50, 1:100, and 1:50.

[3] = In vitro α1,3-fucosyltransferase activity, COS-1 cell lysate, pyridylaminated substrate, HPLC; assay type: biochemical; settings: activity of human Fuc-TVI for α2,3-sialylLNnT taken as 100; 25 μM substrate, 2 hours at 37° C.; normalized to transcript amount
Method: Each α1,3-fucosyltransferase expression plasmid (15 μg) was introduced into 1×10^7 COS-1 cells.
This introduction was performed by electroporation method using a gene pulser (manufactured by Bio-Rad) according to the Bio-Rad's instructional manual attached thereto. At this time, 1 μg of a luciferase expression vector, which was constructed by inserting β-actin promoter into a Hind III site of a vector pSVOA/L [Experimental Medicine, 7, 96, (1989)] was co-introduced as an index of gene transfer efficiency.
After the gene introduction, COS-1 cells were dispensed into three dishes for cell culture with a diameter of 15 cm and then cultured for 48 hours.
The cells in the remaining two dishes were collected, suspended in a solution (20 mM HEPES (pH 7.4), 2% TrironX-100), then ultrasonicated for a short time period, thereby preparing cell lysate. The protein concentration of the cell lysate was measured using a micro BCA protein assay reagent kit (manufactured by PIERCE).
The enzymatic activities of luciferase and α1,3-fucosyltransferase were measured using the cell lysate. […]
Each of the substrates was allowed to react in assay solution with or without GDP-Fuc (sugar donator), then analyzed with HPLC. […]
The products were detected using a fluorescent spectrum photometer FP-920 (JASCO Corporation) at excitation wavelength of 320 nm and emission wavelength of 400 nm. […]

[4] = as above; assay type: biochemical; settings: activity of human Fuc-TVI for α2,3-sialylLNnT taken as 100; 25 μM substrate, 2 hours at 37° C.; normalized to transcript amount; remark: listed apart in the source
[5] = relative activity with the activity for P2 assumed to be 1
[6] = substrate S, relative value, total of products P1, P2 and P3 by each enzyme = 100%

B1: Fuc-TIV: known human α1,3-fucosyltransferase, previously cloned, expressed in Namalwa cells (protein, UniProt P22083 1-530, looked up)
Alpha-(1,3)-fucosyltransferase …: MRRLWGAARKPSGAGWEKEWAEAPQEAPGAWSGRLGPGRSGRKGRAVPGWASWPAHLALAARPARHLGGAGQGPRPLHSGTAPFHSRASGERQRRLEPQLQHESRCRSSTPADAWRAEAALPVRAMGAPWGSPTAAAGGRRGWRRGRGLPWTVCVLAAAGLTCTALITYACWGQLPPLPWASPTPSRPVGVLLWWEPFGGRDSAPRPPPDCRLRFNISGCRLLTDRASYGEAQAVLFHHRDLVKGPPDWPPPWGIQAHTAEEVDLRVLDYEEAAAAAEALATSSPRPPGQRWVWMNFESPSHSPGLRSLASNLFNWTLSYRADSDVFVPYGYLYPRSHPGDPPSGLAPPLSRKQGLVAWVVSHWDERQARVRYYHQLSQHVTVDVFGRGGPGQPVPEIGLLHTVARYKFYLAFENSQHLDYITEKLWRNALLAGAVPVVLGPDRANYERFVPRGAFIHVDDFPSASSLASYLLFLDRNPAVYRRYFHWRRSYAVHITSFWDEPWCRVCQAVQRAGDRPKSIRNLASWFER
- Enzymatic activity, substrate P2, product P3 [1]: 1.0
- Enzymatic activity, substrate S, product P1 [2, 5]: 1.6
- Enzymatic activity, substrate S, product P2 [2, 5]: 4.1
- Enzymatic activity, substrate S, product P3 [2, 5]: 0.5
- Production (%) P1 [2, 6]: 22.2%
- Production (%) P2 [2, 6]: 72.0%
- Production (%) P3 [2, 6]: 5.8%
- reactivity against the anti-VIM-2 sugar chain antibody (Namalwa cells): significant increase

B2: Mouse Fuc-TIX: polypeptide of 359 amino acids (SEQ ID NO:1) encoded by mouse Fuc-TIX cDNA; novel α1,3-fucosyltransferase (protein)
chain: MTSTSKGILRPFLIVCIILGCFMACLLIYIKPTNSWVFSPMESASSVLKMKNFFSTKTDYFNETTILVWVWPFGQTFDLTSCQAMFNIQGCHLTTDRSLYNKSHAVLIHHRDISWDLTNLPQQARPPFQKWIWMNLESPTHTPQKSGIEHLFNLTLTYRRDSDIQVPYGFLTVSTNPFVFEVPSKEKLVCWVVSNWNPEHARVKYYNELSKSIEIHTYGQAFGEYVNDKNLIPTISTCKFYLSFENSIHKDYITEKLYNAFLAGSVPVVLGPSRENYENYIPADSFIHVEDFNSPSELAKYLKEVDKNNKLYLSYFNWRKDFTVNLPRFWESHACLACDHVKRHQEYKSVGNLEKWFWN
modifications: Mouse
notes: novel α1,3-fucosyltransferase
- Relative activity of α1,3-fucosyltransferases for substrate α2,3-sialyl LNnT [3]: 0
- Relative activity of α1,3-fucosyltransferases for substrate LNT [4]: 0
